For three substances, percent reduction of binding against WT VCP results are on record in publication PMC4199230.

The target in this assay is 6X-His-PTPROt-CS/DA. The assay is described as follows: pull-down.

With “HA-tagged VCP Y796F (from UniProt P55072 1-806) (natural protein)”, the percent reduction of binding against WT VCP turned out to be 50%.

For the substance “HA-tagged VCP Y796F/Y805F (from UniProt P55072 1-806) (natural protein)”, the percent reduction of binding against WT VCP was > 90%.

With “HA-tagged VCP Y805F (from UniProt P55072 1-806) (natural protein)”, the percent reduction of binding against WT VCP is > 90%.
